# Data from patent US20250283063, “NOVEL CRISPR-CAS12I SYSTEMS AND USES THEREOF” (HUIDAGENE THERAPEUTICS (SINGAPORE) PTE. LTD., published 2025).
# T1: xCas12i v6.1 (N243R,E336R,V880R)
# T1 chain: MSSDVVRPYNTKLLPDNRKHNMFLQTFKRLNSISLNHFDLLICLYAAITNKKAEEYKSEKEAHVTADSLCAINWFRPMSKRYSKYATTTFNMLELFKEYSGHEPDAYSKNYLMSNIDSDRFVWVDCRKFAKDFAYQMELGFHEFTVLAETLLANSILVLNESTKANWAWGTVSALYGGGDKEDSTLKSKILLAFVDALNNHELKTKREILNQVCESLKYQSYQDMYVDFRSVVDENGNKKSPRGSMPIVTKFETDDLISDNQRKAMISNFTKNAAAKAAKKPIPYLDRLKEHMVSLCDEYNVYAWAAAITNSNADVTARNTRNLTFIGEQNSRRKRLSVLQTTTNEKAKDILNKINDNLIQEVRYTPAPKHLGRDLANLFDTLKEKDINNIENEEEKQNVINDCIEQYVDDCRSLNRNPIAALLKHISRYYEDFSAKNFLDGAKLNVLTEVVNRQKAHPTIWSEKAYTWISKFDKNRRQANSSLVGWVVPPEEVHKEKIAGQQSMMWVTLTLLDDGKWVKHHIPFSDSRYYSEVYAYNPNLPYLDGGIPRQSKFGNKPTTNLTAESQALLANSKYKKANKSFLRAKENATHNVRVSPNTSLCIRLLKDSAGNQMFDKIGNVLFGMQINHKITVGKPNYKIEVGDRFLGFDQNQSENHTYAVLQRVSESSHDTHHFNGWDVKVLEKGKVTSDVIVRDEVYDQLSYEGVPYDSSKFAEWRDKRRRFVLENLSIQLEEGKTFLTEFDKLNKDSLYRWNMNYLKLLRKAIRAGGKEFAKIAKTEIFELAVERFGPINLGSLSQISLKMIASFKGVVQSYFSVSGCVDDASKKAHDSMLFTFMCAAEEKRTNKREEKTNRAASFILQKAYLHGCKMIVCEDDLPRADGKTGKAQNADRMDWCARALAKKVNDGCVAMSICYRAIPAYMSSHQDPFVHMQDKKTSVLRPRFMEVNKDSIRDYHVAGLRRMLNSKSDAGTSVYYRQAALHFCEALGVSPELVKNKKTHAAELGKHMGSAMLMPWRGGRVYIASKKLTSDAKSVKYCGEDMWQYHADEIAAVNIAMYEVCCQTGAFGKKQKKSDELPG
# T2: Cas12Max (xCas12i-N243R, v1.1) (N243R)
# T2 chain: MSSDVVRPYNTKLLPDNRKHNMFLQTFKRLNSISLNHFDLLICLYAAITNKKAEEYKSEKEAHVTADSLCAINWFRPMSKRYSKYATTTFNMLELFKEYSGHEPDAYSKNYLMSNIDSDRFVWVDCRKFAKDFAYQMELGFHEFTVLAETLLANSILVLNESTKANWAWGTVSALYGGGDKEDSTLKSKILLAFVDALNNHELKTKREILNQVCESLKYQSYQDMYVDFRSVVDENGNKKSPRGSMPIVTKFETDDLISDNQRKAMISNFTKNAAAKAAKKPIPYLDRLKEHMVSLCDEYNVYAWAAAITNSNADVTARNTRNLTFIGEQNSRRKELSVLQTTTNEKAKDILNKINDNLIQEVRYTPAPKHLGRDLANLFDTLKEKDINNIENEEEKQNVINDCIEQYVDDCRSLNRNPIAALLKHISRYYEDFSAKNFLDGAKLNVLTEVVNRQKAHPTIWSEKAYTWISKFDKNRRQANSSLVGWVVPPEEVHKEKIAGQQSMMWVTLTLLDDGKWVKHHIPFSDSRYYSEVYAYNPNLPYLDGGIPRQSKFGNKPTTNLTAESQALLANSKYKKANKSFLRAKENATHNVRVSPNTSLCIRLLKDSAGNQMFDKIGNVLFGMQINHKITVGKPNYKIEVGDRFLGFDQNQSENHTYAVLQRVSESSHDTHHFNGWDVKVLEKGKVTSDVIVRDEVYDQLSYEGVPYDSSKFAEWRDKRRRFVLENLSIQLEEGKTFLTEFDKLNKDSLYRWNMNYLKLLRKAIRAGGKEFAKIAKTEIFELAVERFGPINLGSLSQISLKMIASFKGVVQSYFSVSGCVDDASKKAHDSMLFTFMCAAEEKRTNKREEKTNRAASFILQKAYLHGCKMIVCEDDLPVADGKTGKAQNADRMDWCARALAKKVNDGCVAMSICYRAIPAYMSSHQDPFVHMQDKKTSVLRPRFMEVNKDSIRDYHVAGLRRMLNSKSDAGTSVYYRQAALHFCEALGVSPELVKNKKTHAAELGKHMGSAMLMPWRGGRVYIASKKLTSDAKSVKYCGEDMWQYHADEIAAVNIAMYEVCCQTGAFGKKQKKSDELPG
# Tests used:
# xCas12i v6.1 = target: T1, xCas12i v6.1; experiment: cell_activity; PAM TTTG; OT-1; conditions: tags: NLS
# Method: (§1) HEK293T cells were cultured in 24-well tissue culture plates according to standard methods for 12 hours, before the reporter and expression plasmids were co-transfected into the cells using standard polyethyleneimine (PEI) transfection. The transfected cells were then cultured at 37° C. under 5% CO₂ for 48 hours. Then the cultured cells were analyzed by flow cytometry for BFP, EGFP, and mCherry fluorescent signals. A “blank” control group was also set up, where only the reporter plasmid was transfected, and no expression plasmid was introduced.
# (§2) A dual plasmid fluorescent reporter system for evaluation of off-target dsDNA cleavage activity (off-target reporter system; referring to “Off-Target Reporter” in FIG. 1B) was established, which was similar to the dual plasmid fluorescent reporter system in Example 6 for evaluation of (on-target) dsDNA cleavage activity, except that the insertion sequence of the EGxxxxFP coding sequence contains an TTR off-target protospacer sequence (one of SEQ ID NOs: 127-129) containing one or more mismatches (bold, underlined) with a TTR-targeting spacer sequence (SEQ ID NO: 130) in the gRNA, rather than containing a TTR on-target protospacer sequence (SEQ ID NO: 130; which is the same as SEQ ID NO: 107 in Example 5); DR-T1 sequence (SEQ ID NO: 451) was used. To save drafting, the on-target protospacer sequence/spacer sequence in Table 7 refer to both the protospacer sequence (a DNA sequence) and the corresponding spacer sequence (an RNA sequence) with any “T” in the sequence when referring to a protospacer sequences standing for “T” and when referring to a such spacer sequence standing for “U”, although the assigned SEQ ID NO: 130 in the sequence listing is annotated as DNA.
# [1] = target: T2, Cas12Max (xCas12i-N243R, v1.1); experiment: cell_activity; PAM TTTG; OT-1; conditions: tags: NLS
# Method: as §1, §2
binder,measurement,setting,value
TTR.2 crRNA ; TTR OT.1 (ssRNA ; dsDNA) RNA: AUGACUCAGAAAUGUGUCCCCAGUUGACACUAGAAGGGAUAUACAAAGUGGA DNA 1: TTTGTAGAAGGGATATAGAAAGTATC DNA 2: GATACTTTCTATATCCCTTCTACAAA,activity,xCas12i v6.1,2.04%
same,activity,[1],60.2%
